Data reported in the supplement of paper PMC10126150.
± gives the standard deviation of the averaged measurements.

System: ATP
Assay: switch fluorescence ratio, 500 uM ATP over buffer (Cy3 cluster intensity, sum of 5 cycles each) (fold (ratio)); higher = stronger signal-on switching upon ATP binding; sequences stand for … in TCGTCGGCAGCGTCAGATGTGTATAAGAGACAGTTTTTTTTTTTTTTTTTTTTTTTTT…TC
Details: aptamer strand: ATP DNA aptamer (quencher-CACCTGGGGGAGTATTGCGGAGGAAGG + anchor), 100 nM annealed; ATP concentration: 500 uM
In short: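 Exposure to 500 uM ATP lasted 15 min at 22 °C before imaging, and a selection-buffer image was taken beforehand, for Cy3-labelled switching-strand clusters on a modified Illumina MiSeq flow-cell annealed to 100 nM quencher-labelled ATP aptamer. Five buffer/ATP cycles were run with NaOH stripping and re-annealing between them. The fluorescence ratio per cluster is summed target-cycle over summed buffer-cycle Cy3 intensity, averaged per switch-domain sequence. Clusters outside 100-1000 RFU were excluded.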

Row | Sequence | switch fluorescence ratio
1 | ACCAGATCAC | 1.04 ± 0.019
2 | ACCAGCCGGG | 1.09 ± 0.062
3 | ACCAGGGCAT | 1.067 ± 0.0076
4 | ACCAGGTCTA | 1.07 ± 0.017
5 | ACCAGGTGGG | 2.75 ± 0.75
6 | ACCAGTAGAC | 1.038 ± 0.0074
7 | ACCAGTCTCG | 1.07 ± 0.08
8 | ACCAGTGAGT | 0.969 ± 0.011
9 | ACCAGTGCTG | 1 ± 0.04
10 | ACCATAATGG | 1.021 ± 0.01
11 | ACCATACTGC | 1.23 ± 0.12
12 | ACCATCGATA | 1.03 ± 0.024
13 | ACCATGCGTC | 0.99 ± 0.031
14 | ACCCAAAATT | 1.05 ± 0.033
15 | ACCCAATTTT | 1.03 ± 0.036
16 | ACCCAGCGCT | 1.04 ± 0.023
17 | ACCCCGGGCA | 1.08 ± 0.018
18 | ACCCCTTGAT | 1.04 ± 0.023
19 | ACCCGAGGTC | 1.09 ± 0.015
20 | ACCCGATTGC | 1.29 ± 0.044
21 | ACCCGCCAGC | 3.96 ± 1.6
22 | ACCCTCAAAA | 1.31 ± 0.031
23 | ACCCTGCGAG | 1.05 ± 0.032
24 | ACCGAGATCA | 1.03 ± 0.014
25 | ACCGAGGAGG | 0.961 ± 0.026

Row | Sequence | switch fluorescence ratio
26 | ACCGATTGTT | 1.017 ± 0.0016
27 | ACCGCGAAGG | 1.025 ± 0.0058
28 | ACCGCGCGAC | 2.49 ± 0.053
29 | ACCGGGATGC | 3.66 ± 0.26
30 | ACCGGGCTGC | 1.06 ± 0.024
31 | ACCGGTTAAC | 1.02 ± 0.035
32 | ACCGGTTATA | 1.03 ± 0.038
33 | ACCGGTTTTC | 0.984 ± 0.023
34 | ACCGTATGAC | 1.05 ± 0.068
35 | ACCGTATGGC | 1.02 ± 0.023
36 | ACCGTCATTT | 1.05 ± 0.046
37 | ACCGTCTCAG | 1.05 ± 0.026
38 | ACCGTTGTTC | 1.04 ± 0.02
39 | ACCGTTTCGT | 0.94 ± 0.029
40 | ACCTAAAATA | 1.07 ± 0.085
41 | ACCTAACAGG | 0.9728 ± 0.0095
42 | ACCTCCCGTT | 1.12 ± 0.064
43 | ACCTCGGACC | 1.09 ± 0.022
44 | ACCTCTTGGG | 0.9405 ± 0.0011
45 | ACCTGGCATC | 1.122 ± 0.0016
46 | ACCTGTTGTT | 0.991 ± 0.016
47 | ACCTTGGCTC | 1.1 ± 0.06
48 | ACCTTGGTTG | 0.9609 ± 0.0054
49 | ACCTTTACGT | 1.17 ± 0.033
50 | ACCTTTAGTG | 1.03 ± 0.019

Row | Sequence | switch fluorescence ratio
51 | ACCTTTTTCA | 1.021 ± 0.0084
52 | ACGAACGTTG | 1.26 ± 0.089
53 | ACGAATGTGC | 1.022 ± 0.0097
54 | ACGAATGTTG | 0.9918 ± 0.0029
55 | ACGAATTCTG | 1.02 ± 0.042
56 | ACGACCTGCA | 1.51 ± 0.075
57 | ACGACTAGGT | 1.102 ± 0.008
58 | ACGACTGTTA | 1.04 ± 0.02
59 | ACGAGGATTG | 1.042 ± 0.0021
60 | ACGAGGGCGT | 1.03 ± 0.017
61 | ACGAGGGGGA | 1.05 ± 0.016
62 | ACGAGGTAAG | 1.079 ± 0.0031
63 | ACGAGGTAGA | 1.02 ± 0.021
64 | ACGATAGTTA | 0.992 ± 0.01
65 | ACGATGGTTG | 0.9729 ± 0.0095
66 | ACGATTGTCT | 0.973 ± 0.037
67 | ACGCAATGAT | 5.18 ± 0.069
68 | ACGCACGATT | 1.37 ± 0.1
69 | ACGCAGAACG | 1.36 ± 0.074
70 | ACGCATTTGG | 1.1159 ± 0.00088
71 | ACGCCGCGTT | 1.42 ± 0.032
72 | ACGCCGTGTG | 0.999 ± 0.022
73 | ACGCGATAAC | 4.27 ± 0.27
74 | ACGCGGGGAG | 1.01 ± 0.034
75 | ACGCGGTTTT | 1.02 ± 0.027

Row | Sequence | switch fluorescence ratio
76 | ACGCTGAGCA | 1.033 ± 0.008
77 | ACGCTGGAAG | 0.9892 ± 0.0067
78 | ACGCTGGGGG | 1.06 ± 0.041
79 | ACGCTTACTA | 1.44 ± 0.054
80 | ACGCTTGGGA | 0.998 ± 0.048
81 | ACGCTTTACC | 1.89 ± 0.11
82 | ACGCTTTATT | 1.08 ± 0.032
83 | ACGGAATTTG | 1.04 ± 0.019
84 | ACGGACGCAA | 3.95 ± 0.66
85 | ACGGAGAAAC | 1.35 ± 0.11
86 | ACGGAGCGGG | 1.35 ± 0.25
87 | ACGGAGGATA | 1.11 ± 0.014
88 | ACGGAGGGGG | 0.96 ± 0.042
89 | ACGGATGGGG | 0.997 ± 0.019
90 | ACGGATGTTG | 1.01 ± 0.059
91 | ACGGCTCAT | 1.01 ± 0.037
92 | ACGGCTCTGG | 1.015 ± 0.0057
93 | ACGGGACAGC | 1.2 ± 0.064
94 | ACGGGACATT | 1.19 ± 0.033
95 | ACGGGATATA | 1.02 ± 0.058
96 | ACGGGCGACG | 1.02 ± 0.025
97 | ACGGGGCGTA | 0.98581 ± 0.00064
98 | ACGGGGGCTG | 0.996 ± 0.037
99 | ACGGGGGGTG | 1.01 ± 0.077
100 | ACGGGGTAAT | 1.22 ± 0.35

Row | Sequence | switch fluorescence ratio
101 | ACGGGGTATT | 0.996 ± 0.028
102 | ACGGGGTCTA | 0.993 ± 0.027
103 | ACGGGGTGGA | 1 ± 0.037
104 | ACGGGGTTTG | 0.995 ± 0.018
105 | ACGGGTACGC | 1.01 ± 0.021
106 | ACGGGTGGCG | 0.95 ± 0.11
107 | ACGGGTTCCA | 1.08 ± 0.13
108 | ACGGGTTCGT | 1.01 ± 0.012
109 | ACGGTAACGT | 1.02 ± 0.0058
110 | ACGGTAGGGC | 1.03 ± 0.013
111 | ACGGTATTGG | 1.09 ± 0.044
112 | ACGGTCAGTC | 1.05 ± 0.077
113 | ACGGTCCTTT | 0.973 ± 0.038
114 | ACGGTCGACT | 1.05 ± 0.057
115 | ACGGTGTTGG | 1.02 ± 0.021
116 | ACGGTTCCTG | 1.001 ± 0.0061
117 | ACGGTTGGT | 1.02 ± 0.012
118 | ACGGTTGTAC | 1.1813 ± 0.001
119 | ACGGTTGTGG | 1.01 ± 0.026
120 | ACGGTTTTCA | 0.977 ± 0.011
121 | ACGTAATTGT | 1.13 ± 0.061
122 | ACGTAATTTT | 1.17 ± 0.03
123 | ACGTAGAAAT | 1.35 ± 0.022
124 | ACGTAGTTTG | 1.04 ± 0.033
125 | ACGTATTTTG | 1.08 ± 0.045

Row | Sequence | switch fluorescence ratio
126 | ACGTCTGAGG | 1.02 ± 0.029
127 | ACGTGCAGTT | 1.02 ± 0.012
128 | ACGTGCCGCA | 1.079 ± 0.0088
129 | ACGTGCTCGT | 0.991 ± 0.041
130 | ACGTGGGGCT | 1.05 ± 0.027
131 | ACGTGTAGGA | 1.0005 ± 0.00069
132 | ACGTGTAGGG | 1 ± 0.025
133 | ACGTGTCGGT | 1.028 ± 0.0037
134 | ACGTGTGGGG | 1.05 ± 0.034
135 | ACGTGTTCAT | 0.983 ± 0.018
136 | ACGTTATTTA | 1.1534 ± 0.0011
137 | ACGTTCGCGG | 0.985 ± 0.028
138 | ACGTTCGTTG | 0.9908 ± 0.0096
139 | ACGTTCTGTT | 1.02 ± 0.023
140 | ACGTTTGTTT | 0.971 ± 0.049
141 | ACTAAACGAG | 1.062 ± 0.0078
142 | ACTACTGGCT | 1.047 ± 0.0089
143 | ACTACTGGGA | 0.976 ± 0.041
144 | ACTACTTTCG | 1.03 ± 0.034
145 | ACTAGAGCGA | 1.11 ± 0.11
146 | ACTAGAGGAC | 1 ± 0.04
147 | ACTAGATACG | 1.04 ± 0.018
148 | ACTAGCGGCG | 1.05 ± 0.024
149 | ACTAGGAATC | 1.04 ± 0.019
150 | ACTAGGCAAG | 1.13 ± 0.018

Row | Sequence | switch fluorescence ratio
151 | ACTAGTGTCA | 1 ± 0.04
152 | ACTATAGTGT | 1.02 ± 0.022
153 | ACTATGCGGG | 0.982 ± 0.017
154 | ACTATGGCTG | 0.957 ± 0.045
155 | ACTATGGTTA | 0.997 ± 0.055
156 | ACTATTACGG | 1.18 ± 0.0094
157 | ACTCACTGGT | 1.23 ± 0.043
158 | ACTCATGTAA | 1.03 ± 0.015
159 | ACTCATGTT | 0.996 ± 0.012
160 | ACTCATTTGG | 1.001 ± 0.0087
161 | ACTCCATACA | 1.21 ± 0.04
162 | ACTCCCGAAT | 1.865 ± 0.0096
163 | ACTCGACAGG | 1.8 ± 0.013
164 | ACTCGAGGAT | 1.03 ± 0.013
165 | ACTCGCTGGG | 1.11 ± 0.018
166 | ACTCGTGTAG | 1.04 ± 0.022
167 | ACTCTGGGAG | 1.03 ± 0.022
168 | ACTCTGGGGT | 1.03 ± 0.015
169 | ACTCTGGTAA | 1.065 ± 0.0032
170 | ACTCTTATCG | 1.02 ± 0.054
171 | ACTCTTGTAT | 1.045 ± 0.0058
172 | ACTGAATCCT | 1.08 ± 0.028
173 | ACTGAGCCTG | 1.056 ± 0.0083
174 | ACTGAGGGGG | 1 ± 0.01
175 | ACTGCAGAAC | 1.9 ± 0.34

Row | Sequence | switch fluorescence ratio
176 | ACTGCCATCG | 1.1 ± 0.023
177 | ACTGGGCCTT | 1.031 ± 0.0083
178 | ACTGGGCGGA | 0.996 ± 0.015
179 | ACTGGGGGAC | 1.04 ± 0.036
180 | ACTGGGGGTG | 1.07 ± 0.086
181 | ACTGGGTTTC | 0.99 ± 0.054
182 | ACTGGTATAG | 1.041 ± 0.0019
183 | ACTGGTTTTG | 1.01 ± 0.022
184 | ACTGTAACGG | 1.19 ± 0.034
185 | ACTGTCGCCA | 1.023 ± 0.0059
186 | ACTGTCTAAT | 1.01 ± 0.026
187 | ACTGTGCTTT | 1.015 ± 0.0097
188 | ACTGTGGAAT | 1.07 ± 0.022
189 | ACTGTGGGGA | 1.01 ± 0.013
190 | ACTGTTTGGA | 0.995 ± 0.0037
191 | ACTTAAAATT | 0.996 ± 0.044
192 | ACTTAATGTA | 1 ± 0.03
193 | ACTTAATTGT | 1.07 ± 0.084
194 | ACTTAGGCGG | 1 ± 0.011
195 | ACTTAGGGGA | 1.02 ± 0.036
196 | ACTTATAATT | 1.02 ± 0.027
197 | ACTTATCGGG | 1 ± 0.029
198 | ACTTATTTTT | 1 ± 0.019
199 | ACTTCAAGGA | 1.04 ± 0.069
200 | ACTTCTAACT | 1.07 ± 0.034
